In IntAct's records for PubMed 12620189:

B1: SCOCO-like protein 1 (Saccharomyces cerevisiae), Q3E784 (parent)
chain: MSAENISTGSPTGKQPSSEVNLGEREAGTKNERMMRQTKLLKDTLDLLWNKTLEQQEVCEQLKQENDYLEDYIGNLMRSSNVLEK
partner: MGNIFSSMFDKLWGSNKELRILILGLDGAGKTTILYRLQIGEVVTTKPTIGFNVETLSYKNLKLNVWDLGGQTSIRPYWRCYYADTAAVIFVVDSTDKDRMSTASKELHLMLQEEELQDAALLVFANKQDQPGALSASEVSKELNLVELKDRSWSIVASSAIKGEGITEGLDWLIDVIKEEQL

Variants of: B1
Conditions: with arl1_yeast ARL1, P38116

Row | effect of a mutation on the interaction | Variant
1 | disrupting interaction | MSAENISTGSPTGKQPSSEVNLGEREAGTKNERMMRQTKLLKDTLDLLWNKTLEQQEVCEQLKQENDYLEDAIGNLMRSSNVLEK
